# Test results taken from patent US11827911B2, “Chimeric bacteriophage lysin with activity against Staphylococci bacteria” (priority 2008, dated 2023).
# Legend:
# MRSA strain MW2 = assay: Systemic MRSA infection model, survival; assay type: in vivo, FVB/NJ mice; conditions: 100 μg/mouse of oxacillin alone, 10 days
# Experimental: In order to assess whether ClyS treatment could prevent death resulting from systemic MRSA infections, 4 week old FVB/NJ mice were intraperitoneally injected with ˜5×10^5 CFU of the community-acquired MRSA strain MW2 in 5% mucin. Preliminary experiments determined that 5×10^5 CFU was 10× the LD100 dose for a twenty-four hour period. Furthermore, within 3 hours of IP injection the MRSA infection was systemic. i.e., MRSA were recovered in high numbers from heart, liver, spleen, and kidney (data not shown). Treatment occurred three hours post-infection, with either 20 mM phosphate buffer or 1 mg of ClyS in 20 mM phosphate buffer injected IP (intraperitoneally). Mice were then monitored for survival over ten days. The results from three independent experiments were combined (ClyS treatment, n=16; buffer treatment, n=14) and the mice survival data plotted with a Kaplan Meier Survival curve (FIG. 12), Within twenty-four hours all of the control mice died of bacterial sepsis, while only 2/16 of ClyS treated mice died at forty-eight hours, and the remaining mice (14/16, 88%) survived over the course of the experiments (FIG. 12).
# To determine if this effect could be seen in our systemic MRSA infection model, FVB/NJ mice were intraperitoneally injected with ˜5×10^5 CFUs of the MRSA strain MW2 as above. Three hours post infection mice were treated in parallel, with a lower IP dose of 130 μg/mouse of ClyS combined with different concentrations of oxacillin (10-100 μg/mouse) or buffer alone controls. Preliminary experiments determined that an ED30 dose of ClyS (130 μg/mouse) had minimal efficacy to evaluate the effect of combinatorial treatment with oxacillin (data not shown). Mice were monitored for survival for 10 days and the results of 5 independent experiments were combined and plotted in a Kaplan Meier Survival curve (FIG. 14).
# MRSA strain COL = assay: Checkerboard broth-microdilution assay; assay type: cell-based, Staphylococcus aureus; conditions: Staphylococcus aureus, read-out: MIC
# From the text: (§1) We used the checkerboard broth-microdilution assay to test the interaction of ClyS with vancomycin and with oxacillin. […] Isobolograms for ClyS with vancomycin and ClyS with oxacillin was plotted by transcribing the enzyme concentrations along the inhibitory line on the microtiter plate in an x/y plot.
# staphylococcal strains = conditions: by altering peptide cross-bridges; cited from earlier work
# VISA strain Mu50 = assay: Checkerboard broth-microdilution assay; assay type: cell-based, Staphylococcus aureus; conditions: Staphylococcus aureus, VISA
# From the text: as §1
# S. aureus = assay: Lytic assays of chimeric lysins against S. aureus; assay type: cell-based, Staphylococcus aureus; conditions: for lytic/killing activity against S. aureus: qualitative
# From the text: For this, the endopeptidase domain in Twort lysin (14) was used to construct chimera AD 119 (SEQ ID NO:3). […] To overcome low expression of AD 127 construct, the entire chimera gene was cloned into expression vector pJML6 to generate pAD 138.
# [1] = Solubility of expressed lysins and chimeras
# Experimental: In another embodiment, the lysin is a chimeric protein that comprises an endopeptidase domain of the S. aureus Twort lysin upstream of the phiNM3 CWT domain (SEQ ID NO:1). The chimeric polypeptide is preferably sufficiently soluble in phosphate buffered saline (PBS). Preferred levels of solubility in PBS for the chimeric lysins is at least about 1 mg/ml and more preferably at least about 3 mg/mL. in PBS. […] One example of such a lysin is provided in SEQ ID NO:2 (AD127), shown in FIG. 5A and consisting of the Twort lysin endopeptidase domain attached to the phiNM3 CWT domain (SEQ ID NO:1). The isolated polypeptide of SEQ ID NO:2 (AD 127) was constructed by engineering S. epidermidis autolysin amidase and Twort lysin endopeptidase domains upstream of phiNM3 CWT domain, respectively.
# Traditionally, Bacillus-specific lysins are expressed at high levels and are soluble in E. coli. Therefore, our first attempt was to engineer a 16-amino acid peptide (4) that is conserved in several S. aureus-specific lysins (Lu J Z, Fujiwara T, Komatsuzawa H, Sugai M, Sakon J. 2006. Cell wall-targeting domain of glycylglycine endopeptidase distinguishes among peptidoglycan cross-bridges. (Lue et al. (2006) J. Biol. Chem. 281(1):549-58) The catalytic domain of the Bacillus-specific lysin PlyB was used to generate chimera AD 103 (FIG. 4) (SEQ ID NO: 13). The chimeras were tested for expression, solubility and activity. Then the entire C-terminal CWT domain of PlyB (6) was replaced by the putative C-terminal domain of S. aureus phage Twort lysin (8) to obtain AD 105 (SEQ ID NO: 14). […] Since the lysostaphin catalytic domain […] (10) in AD 112 was of bacterial origin, we attempted to engineer a phage-derived catalytic domain upstream of the lysostaphin CWT. For this, the endopeptidase domain in Twort lysin (14) was used to construct chimera AD 119 (SEQ ID NO:3).
molecule,measurement,setting,value
"Cc1onc(-c2ccccc2)c1C(=O)N[C@@H]1C(=O)N2[C@@H]1SC(C)(C)[C@@H]2C(=O)O [oxacillin, reference compound]",survival,MRSA strain MW2,35%
same,MIC,MRSA strain COL,32 µg/mL
lysostaphin: staphylolytic enzyme produced by Staphylococcus simulans,frequency of developing resistance,staphylococcal strains,10^−6
"CN[C@H](CC(C)C)C(=O)N[C@H]1C(=O)N[C@@H](CC(N)=O)C(=O)N[C@H]2C(=O)N[C@H]3C(=O)N[C@H](C(=O)N[C@H](C(=O)O)c4cc(O)cc(O)c4-c4cc3ccc4O)[C@H](O)c3ccc(c(Cl)c3)Oc3cc2cc(c3O[C@@H]2O[C@H](CO)[C@@H](O)[C@H](O)[C@H]2O[C@H]2C[C@](C)(N)[C@H](O)[C@H](C)O2)Oc2ccc(cc2Cl)[C@H]1O [vancomycin, reference compound]",MIC,VISA strain Mu50,8 µg/mL
"AD 126: S. epidermidis autolysin amidase domain upstream of phiNM3 CWT domain (protein, Chimeric of Staphylococcus epidermidis autolysin amidase domain and Staphylococcus aureus phage pniNM3 CWT domain) MVSSQKTSSLPKYTPKVNSSINNYIRKKNMKAPRIEEDYTSYFPKYGYRNGVGRPEGIVVHDTANDNSTIDGEIAFMKRNYTNAFVHAFVDGNRIIETAPTDYLSWGAGPYGNQRFINVEIVHTHDYDSFARSMNNYADYAATQLQYYNLKPDSAENDGRGTVWTHAAISNFLGGTDHADPHQYLRSHNYSYAELYDLIYEKYLIKTKQVAPWGTTSTKPSQPSKPSGGTNNKLTVSANRGVAQIKPTNNGLYTTVYDSKGHKTDQVQKTLSVTKTATLGNNKFYLVEDYNSGKKYGWVKQGDVVYNTAKAPVKVNQTYNVKAGSTLYTVPWGTPKQVASKVSGTGNQTFKATKQQQIDKATYLYGTVNGKSGWISKYYLTTASKPSNPTKPSTNNQLTVTNNSGVAQINAKNSGLYTTVYDTKGKTTNQIQRTLSVTKAATLGDKKFYLVGDYNTGTNYGWVKQDEVIYNTAKSPVKINQTYNVKPGVKLHTVPWGTYNQVAGTVSGKGDQTFKATKQQQIDKATYLYGTVNGKSGWISKYYLLQGLMNKITNKVKPPAQKAVGKSASKITVGSKAPYNLKWSKGAYFNAKIDGLGATSATRYGDNRTNYRFDVGQAVYAPGTLIYVFEIIDGWCRIYWNNHNEWIWHERLIVKEVF",lytic/killing activity against S. aureus,S. aureus,no expression or activity
"AD 112: S. epidermidis autolysin amidase domain upstream of the lysostaphin CWT domain (protein, Chimeric of Staphylococcus epidermidis autolysin amidase domain and Staphylococcus simulans metalloendopeptidase Lysostaphin CWT domain) MVSSQKTSSLPKYTPKVNSSINNYIRKKNMKAPRIEEDYTSYFPKYGYRNGVGRPEGIVVHDTANDNSTIDGEIAFMKRNYTNAFVHAFVDGNRIIETAPTDYLSWGAGPYGNQRFINVEIVHTHDYDSFARSMNNYADYAATQLQYYNLKPDSAENDGRGTVWTHAAISNFLGGTDHADPHQYLRSHNYSYAELYDLIYEKYLIKTKQVAPWGTTSTKPSQPSKPSGGTNNKLTVSANRGVAQIKPTNNGLYTTVYDSKGHKTDQVQKTLSVTKTATLGNNKFYLVEDYNSGKKYGWVKQGDVVYNTAKAPVKVNQTYNVKAGSTLYTVPWGTPKQVASKVSGTGNQTFKATKQQQIDKATYLYGTVNGKSGWISKYYLTTASKPSNPTKPSTNNQLTVAGQTIHYDEVMKQDGHTNNSGVAQINAKNSGLYTTVYDTKGKTTNQIQRTLSVTKAATLGDKKFYLVGDYNTGTNYGWVKQDEVIYNTAKSPVKINQTYNVKPGVKLHTVPWGTYNQVAGTVSGKGDQTFKATKQQQIDKATYLYGTVNGKSGWISKYYLLQTPNTGWKTNKYGTLYKSESASFTPNTDIITRTTGPFRSMPQSGVLKVWVGYTGNSGQRIYLPVRTWNKSTNTLGVLWGTIK",solubility of the expressed protein,[1],very soluble
same,effect on S. aureus cells when exposed,S. aureus,clumped
same,lytic/killing activity against S. aureus,S. aureus,no lytic activity
"AD 119: Twort lysin endopeptidase domain upstream of the lysostaphin CWT domain (protein, Chimeric of Staphylococcus aureus bacteriophage Twort domain and Staphylococcus simulans metalloendopeptidase Lysostaphin CWT domain) METLKQAESYIKSKVNTGTDFDGLYGYQCMDLAVDYIYHVTDGKIRMWGNAKDAINNSFGGTATVYKNYPAFRPKYGDVVVWTTGNFATYGHIAIVTNPDPYGDLQYVTVLEQNWNGNGIYKTELATIRTHDYTGITHFIRPNFATESSVKKKDTKKKPKPSNRDGLNKDKIVYDRTNINYNMVLQTPNTGWKTNKYGTLYKSESASFTPNTDIITRTTGPFRSMPQSGVLKAGQTIHYDEVMKQDGHVWVGYTGNSGQRIYLPVRTWNKSTNTLGVLWGTIK",solubility of the expressed protein,[1],soluble
same,lytic/killing activity against S. aureus,S. aureus,did not show significant activity
"AD 105: PlyB with its C-terminal CWT domain replaced by the putative C-terminal domain of S. aureus phage Twort lysin (protein, Cimeric of Bacillus-specific phage lysin PlyB catalytic domain and Staphylococcus aureus bacteriophage Twort domain) MGYIVDMSKWNGSPDWDTAKGQLDLVIARVQDGSNYVDPVYKDYVAAMKARNIPFGSYAFCRFVSVEDAKVEARDFWNRGDKDSLFWVADVEVTTMSDMRAGTQAFIDELYRLGAKKVGLYVGHHKYEEFGAAQIKCDFTWIPRYGAKPAYPCDLWQYDEYGQVPGIGKCDLNRLNGDKSLDWFTGKGEEAVQWNVNNYGTYYKSESATFKCTARQGIVTRYTGPFTTCPQAGVLYYGQSVTYDTVCKQDGYVWISWTTNGGQDVWMPVRTWDKNTDIMGQLWGDIY",lytic/killing activity against S. aureus,S. aureus,not active
"AD 107: lysostaphin CWT domain downstream of PlyB-catalytic domain (protein, Chimeric of Bacillus-specific phage lysin PlyB catalytic domain and Staphylococcus simulans metalloendopeptidase Lysostaphin CWT domain) MGYIVDMSKWNGSPDWDTAKGQLDLVIARVQDGSNYVDPVYKDYVAAMKARNIPFGSYAFCRFVSVEDAKVEARDFWNRGDKDSLFWVADVEVTTMSDMRAGTQAFIDELYRLGAKKVGLYVGHHKYEEFGAAQIKCDFTWIPRYGAKPAYPCDLWQYDEYGQVPGIGKCDLNRLNGDKSLDWFTGKGEEAVQLQTPNTGWKTNKYGTLYKSESASFTPNTDIITRTTGPFRSMPQSGVLKAGQTIHYDEVMKQDGHVWVGYTGNSGQRIYLPVRTWNKSTNTLGVLWGTIK",solubility of the expressed protein,[1],poor
same,lytic/killing activity against S. aureus,S. aureus,no activity
